{
  "source": "paper PMC6009666",
  "about": "“DNA-mediated dimerization on a compact sequence signature controls enhancer engagement and regulation by FOXA1”",
  "key": {"FOXA1 DBD [1]": {"molecular_target": "T1, FOXA1 DBD (Homo sapiens, UniProt P55317 158-272)", "T1 sequence": "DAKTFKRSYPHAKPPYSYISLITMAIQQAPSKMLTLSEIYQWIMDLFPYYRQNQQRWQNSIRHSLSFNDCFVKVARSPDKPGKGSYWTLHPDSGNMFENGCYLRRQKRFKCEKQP", "assay": "EMSA", "settings": "monomer binding not affected; EMSA: 20 mM Tris-HCl pH 8.0, 100 mM KCl, 50 uM ZnCl2, 0.1 mg/ml BSA, 10% glycerol, 0.1% Igepal CA630, 2 mM beta-mercaptoethanol, 1 h at 4 C; 1-100 nM dsDNA; 12%"}, "FOXA1 DBD [2]": {"molecular_target": "T1, FOXA1 DBD", "assay": "EMSA; 1 nM DNA; monomer; n=3; EMSA: 20 mM Tris-HCl pH 8.0, 100 mM KCl, 50 uM ZnCl2, 0.1 mg/ml BSA, 10% glycerol, 0.1% Igepal CA630, 2 mM beta-mercaptoethanol, 1 h at 4 C; 1-100 nM dsDNA; 12% native PAGE (6% for full length)", "settings": "protein: recombinant; tags: His-tag implied (pNic28-Bsa4, Ni-NTA); label: 5' Cy5 forward strand"}},
  "data": [
    {"molecule": "rs2941742 minor allele", "values": [
      {"measurement": "binding signal (fold reduction of omega vs major allele)", "setting": "FOXA1 DBD [1]", "result": 20}
    ]},
    {"molecule": "FOXA1 monomer element (dsDNA) DNA 1: CCGCCGCCGTGTTTACTTTGCCGCCGCC DNA 2: GGCGGCGGCAAAGTAAACACGGCGGCGG", "values": [
      {"measurement": "Kd", "setting": "FOXA1 DBD [2]", "result": "2.4 ± 1.06", "unit": "nM"}
    ]}
  ]
}
